In patent US5525708, “Covalent dimer of kit ligand” (CytoMed, Inc., dated 1996):

What was measured:
[1] = biological target: c-kit proto-oncogene (receptor of KL) on human cells (human, UniProt P10721); assay: cell-based or functional assay
[2] = biological target: c-kit proto-oncogene (receptor of KL) on murine cells (murine, UniProt P05532); assay: cell-based or functional assay

proliferation of human cell lines (M07e), 3H-thymidine incorporation [1]: 10 fold
proliferation of murine mast cells (BMMC), 3H-thymidine incorporation [2]: 10 fold
B1: murine covalent dimer kit ligand (KL-CD), biologically active form (ligand)
chain: MMKKTQTWIITCIYLQLLLFNPLVKTKEICGNPVTDNVKDITKLVANLPNDYMITLNYVAGMDVLPSHCWLRDMVIQLSLSLTTLLDKFSNISEGLSNYSIIDKLGKIVDDLVLCMEENAPKNIKESPKRPETRSFTPEEFFSIFNRSIDAFKDFMVASDTSDCV
modifications: at least one intermolecular disulfide bond between one of the four cysteines (4, 43, 89, 138) of one monomer and one of the four cysteines of the other monomer; which cysteines is not determined
